Results as given in IntAct's records for PubMed 10713164.

Molecular target: ncor2_human NCOR2 (UniProt Q9Y618)

- effect of a mutation on the interaction: decreasing interaction strength
Substance: Recombining binding protein suppressor of hairless (Homo sapiens), Q06330 E233A;E234A;F235A
